Results published in patent publication US20120065123A1 (published 2012).
One block for each binder: values may come before it. Where no end group is shown, it is not given here.

Experiments:
[1] = biological target: T1, Tumor Necrosis Factor-alpha (TNF-α); assay: SPR kinetic fits of sensorgrams
T1 construct: also called TNF-a

[2] = biological target: T1, Tumor Necrosis Factor-alpha (TNF-α); assay: SPR equilibrium, Biacore A100, TNF-α captured on chip
Protocol: Point-mutant libraries were prepared in 96-well stock plates From the stock plate, peptides were diluted to 50 μM concentration in Biacore HBS-EP buffer (GE Healthcare, Piscataway, N.J.) containing 1 mg/ml carboxymethyl-dextran (Sigma-Aldrich, St. Louis, Mo.) to reduce non-specific binding to the CM-5 SPR chip surface. […] Spot 3 contained only immobilized neutravidin and served as a reference spot.
Purified point-mutant affinities were measured on the Biacore A100 using SPR equilibrium binding response across a series of peptide concentrations on an SPR chip with TNF-α captured as described above.

transferrin = biological target: T2, transferrin; assay: SPR
T2 construct: Alexa 555 labelled on arrays, amine-coupled to the chip in SPR, on beads in mRNA display; also called TRF; transferring
T2 sequence (P02787 20-698): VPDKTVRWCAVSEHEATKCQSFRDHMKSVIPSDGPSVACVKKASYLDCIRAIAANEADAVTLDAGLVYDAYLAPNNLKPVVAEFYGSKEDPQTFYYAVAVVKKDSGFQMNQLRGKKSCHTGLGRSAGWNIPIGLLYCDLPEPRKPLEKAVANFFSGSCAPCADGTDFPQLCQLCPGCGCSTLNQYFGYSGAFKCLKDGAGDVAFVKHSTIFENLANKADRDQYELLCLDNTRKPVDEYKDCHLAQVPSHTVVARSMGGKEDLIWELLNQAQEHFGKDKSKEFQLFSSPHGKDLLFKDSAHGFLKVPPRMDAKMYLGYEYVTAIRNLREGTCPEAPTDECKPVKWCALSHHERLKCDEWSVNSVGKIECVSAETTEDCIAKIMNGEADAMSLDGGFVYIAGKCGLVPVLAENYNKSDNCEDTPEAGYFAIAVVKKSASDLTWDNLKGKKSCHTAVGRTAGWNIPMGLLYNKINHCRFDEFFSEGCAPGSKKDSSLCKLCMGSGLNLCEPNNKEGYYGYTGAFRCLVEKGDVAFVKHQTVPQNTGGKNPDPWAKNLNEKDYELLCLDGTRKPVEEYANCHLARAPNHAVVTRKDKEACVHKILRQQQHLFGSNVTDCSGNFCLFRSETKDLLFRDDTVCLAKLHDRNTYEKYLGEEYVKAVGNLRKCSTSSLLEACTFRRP

AKT1 = AKT1 (Homo sapiens (Human), UniProt P31749 1-480); assay: SPR
AKT1, sequence (P31749 whole entry): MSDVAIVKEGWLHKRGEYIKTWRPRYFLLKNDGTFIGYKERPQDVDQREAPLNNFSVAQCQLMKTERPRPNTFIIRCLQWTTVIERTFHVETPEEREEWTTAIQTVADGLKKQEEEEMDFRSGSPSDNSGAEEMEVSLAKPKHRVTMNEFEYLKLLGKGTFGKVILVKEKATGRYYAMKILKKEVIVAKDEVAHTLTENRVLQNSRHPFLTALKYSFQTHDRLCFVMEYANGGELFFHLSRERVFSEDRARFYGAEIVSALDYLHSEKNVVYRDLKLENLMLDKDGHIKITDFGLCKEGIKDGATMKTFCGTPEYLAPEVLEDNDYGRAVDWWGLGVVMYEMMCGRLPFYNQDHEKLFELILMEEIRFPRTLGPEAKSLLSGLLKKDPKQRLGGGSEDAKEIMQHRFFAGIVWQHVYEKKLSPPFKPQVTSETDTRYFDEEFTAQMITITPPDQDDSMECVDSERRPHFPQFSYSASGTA

ANXA1 = biological target: T3, ANXA1 (human, UniProt P04083); assay: Invitrogen Protoarray Human Protein Microarray v. 4.0; biotinylated synbody detected with fluorescently labelled streptavidin; fluorescence intensity above background
T3 construct: GST fusion, feature of the Invitrogen Protoarray Human Protein Microarray v; 4.0
T3 sequence (array feature, looked up): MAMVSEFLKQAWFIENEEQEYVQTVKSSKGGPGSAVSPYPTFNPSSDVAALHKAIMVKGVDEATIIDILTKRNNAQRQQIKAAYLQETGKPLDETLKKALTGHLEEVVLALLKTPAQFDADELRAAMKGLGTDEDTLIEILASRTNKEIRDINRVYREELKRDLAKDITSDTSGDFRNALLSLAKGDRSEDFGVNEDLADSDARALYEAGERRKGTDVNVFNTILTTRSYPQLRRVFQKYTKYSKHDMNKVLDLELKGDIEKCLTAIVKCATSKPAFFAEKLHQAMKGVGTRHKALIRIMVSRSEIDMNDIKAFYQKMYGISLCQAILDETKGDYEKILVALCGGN
Protocol: (§1) Application of the synbodies to the microarray was performed in accordance with manufacturer instructions: (see ProtoArray Human Protein Microarray, Invitrogen, Catalog no. PAH052401, Version B, 15 Dec. 2006, 25-0970, Users Manual.) After blocking the array with 1% BSA/PBS/0.1% Tween for 1 hour at 4C with gentle shaking, 120 μl of probing buffer (1×PBS, 5 mM mgCl2, 0.5 mM DTT, 0.05% Triton X-100, 5% glycerol, 1% BSA) with synbody was applied to the array. The prescribed cover slip was placed over the array and adjusted to remove air bubbles. The array was incubated in a 50 ml conical tube, printed side up, for 1.5 hours at 4C without shaking. The array was then removed from the conical tube inserted diagonally into the array chamber, kept on ice. 8 ml probing buffer was added to the chamber wall. The cover slip was removed and the array was incubated in probing buffer for 1 minute on ice. The probing buffer was decanted and drained. Two further washings were performed adding 8 ml probing buffer, incubating on ice for 1 minute, and decanting and draining. 5 nM fluorescently labeled streptavidin diluted in 6 ml probing buffer was incubated on the array for 30 minutes on ice in the dark, after which the solution was decanted and drained. Three wash steps were performed, each by adding 8 ml probing buffer, incubating for 1 minute on ice, decanting, and draining. The array was removed from the chamber, centrifuged at 800×g for 5 minutes at room temperature. The array was dried in the dark for 60 minutes at room temperature, after which it was scanned using a fluorescent microarray scanner and data was taken and analyzed.

ROCK2 = biological target: T4, ROCK2 (human, UniProt O75116); assay: as above
T4 construct: GST fusion, feature of the Invitrogen Protoarray Human Protein Microarray v; 4.0
T4 sequence (O75116 1-552 limits assumed): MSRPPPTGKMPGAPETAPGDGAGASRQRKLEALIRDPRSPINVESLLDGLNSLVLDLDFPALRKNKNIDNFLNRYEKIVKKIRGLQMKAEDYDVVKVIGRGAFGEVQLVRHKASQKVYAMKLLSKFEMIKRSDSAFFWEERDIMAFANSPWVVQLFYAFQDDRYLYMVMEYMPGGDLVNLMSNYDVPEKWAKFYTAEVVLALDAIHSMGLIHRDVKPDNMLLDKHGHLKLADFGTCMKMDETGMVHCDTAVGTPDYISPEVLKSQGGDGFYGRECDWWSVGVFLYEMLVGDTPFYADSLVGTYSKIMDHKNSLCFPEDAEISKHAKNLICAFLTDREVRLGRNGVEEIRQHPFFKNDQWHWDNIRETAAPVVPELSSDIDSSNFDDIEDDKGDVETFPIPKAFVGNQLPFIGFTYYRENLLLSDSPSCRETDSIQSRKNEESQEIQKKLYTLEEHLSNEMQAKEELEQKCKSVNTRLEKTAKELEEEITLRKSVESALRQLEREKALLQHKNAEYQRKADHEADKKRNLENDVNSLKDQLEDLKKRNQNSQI
Protocol: as §1

PTK2 = biological target: T5, PTK2 (human, UniProt Q05397); assay: as above
T5 construct: GST fusion, feature of the Invitrogen Protoarray Human Protein Microarray v; 4.0
T5 sequence (Q05397 whole entry, the tested form may be a part): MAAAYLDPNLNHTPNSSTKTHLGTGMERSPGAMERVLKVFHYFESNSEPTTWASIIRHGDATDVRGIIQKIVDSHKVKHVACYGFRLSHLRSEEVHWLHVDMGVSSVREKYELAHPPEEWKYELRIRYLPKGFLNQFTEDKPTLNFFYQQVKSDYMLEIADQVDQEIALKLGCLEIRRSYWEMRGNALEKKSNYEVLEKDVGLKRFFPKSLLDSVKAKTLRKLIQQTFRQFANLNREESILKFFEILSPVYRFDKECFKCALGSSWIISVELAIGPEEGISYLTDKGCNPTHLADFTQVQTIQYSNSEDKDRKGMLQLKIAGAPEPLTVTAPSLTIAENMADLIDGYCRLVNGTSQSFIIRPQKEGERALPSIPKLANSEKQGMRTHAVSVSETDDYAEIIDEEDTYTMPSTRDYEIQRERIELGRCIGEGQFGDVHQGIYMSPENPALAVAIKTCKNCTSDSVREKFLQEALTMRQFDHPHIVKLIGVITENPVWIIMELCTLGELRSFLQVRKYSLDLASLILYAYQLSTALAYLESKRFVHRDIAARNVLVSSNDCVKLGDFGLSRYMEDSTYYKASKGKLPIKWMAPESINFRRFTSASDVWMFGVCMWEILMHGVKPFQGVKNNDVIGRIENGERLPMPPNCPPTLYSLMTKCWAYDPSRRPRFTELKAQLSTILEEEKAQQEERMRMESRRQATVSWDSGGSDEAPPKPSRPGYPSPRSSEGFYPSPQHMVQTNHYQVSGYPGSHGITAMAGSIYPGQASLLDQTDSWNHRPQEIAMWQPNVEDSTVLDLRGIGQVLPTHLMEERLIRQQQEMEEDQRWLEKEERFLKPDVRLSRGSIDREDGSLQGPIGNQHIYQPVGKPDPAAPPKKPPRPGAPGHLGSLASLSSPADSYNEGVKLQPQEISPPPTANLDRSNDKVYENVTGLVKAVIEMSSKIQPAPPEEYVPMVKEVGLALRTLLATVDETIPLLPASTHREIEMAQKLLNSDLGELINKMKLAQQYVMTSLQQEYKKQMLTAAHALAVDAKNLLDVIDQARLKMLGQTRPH
Protocol: as §1

LACRT = biological target: T6, LACRT (human, UniProt Q9GZZ8); assay: as above
T6 construct: GST fusion, feature of the Invitrogen Protoarray Human Protein Microarray v; 4.0
T6 sequence (array feature, looked up): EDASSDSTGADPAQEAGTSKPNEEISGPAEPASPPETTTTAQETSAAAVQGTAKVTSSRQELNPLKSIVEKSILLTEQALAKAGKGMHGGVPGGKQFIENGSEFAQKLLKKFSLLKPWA
Protocol: as §1

CHAF1B = biological target: T7, CHAF1B (human, UniProt Q13112); assay: as above
T7 construct: GST fusion, feature of the Invitrogen Protoarray Human Protein Microarray v; 4.0
T7 sequence (Q13112 whole entry, the tested form may be a part): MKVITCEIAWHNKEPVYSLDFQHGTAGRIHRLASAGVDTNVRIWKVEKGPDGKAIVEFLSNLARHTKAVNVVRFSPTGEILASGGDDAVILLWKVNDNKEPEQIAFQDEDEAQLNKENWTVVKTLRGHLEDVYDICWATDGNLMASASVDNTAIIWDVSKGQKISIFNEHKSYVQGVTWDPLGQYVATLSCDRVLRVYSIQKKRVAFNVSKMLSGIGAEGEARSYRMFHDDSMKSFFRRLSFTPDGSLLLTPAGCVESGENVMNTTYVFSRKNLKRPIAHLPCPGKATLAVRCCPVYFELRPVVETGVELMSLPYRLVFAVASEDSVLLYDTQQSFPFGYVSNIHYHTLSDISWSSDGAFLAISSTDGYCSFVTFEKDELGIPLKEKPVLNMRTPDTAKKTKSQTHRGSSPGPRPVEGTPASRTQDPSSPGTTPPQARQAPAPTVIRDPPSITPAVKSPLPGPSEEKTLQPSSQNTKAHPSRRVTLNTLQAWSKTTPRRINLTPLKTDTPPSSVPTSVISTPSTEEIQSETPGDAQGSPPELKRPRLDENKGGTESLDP
Protocol: as §1

ACTC = biological target: T8, ACTC (human, UniProt P68032); assay: as above
T8 construct: GST fusion, feature of the Invitrogen Protoarray Human Protein Microarray v; 4.0
Protocol: as §1

[3] = biological target: T9, pooled human transferrin (Sigma), biotinylated (human, UniProt P02787 20-698, biotinylated at amines with NHS-LC-LC-Biotin); assay: SPR Biacore A-100, purified peptide at several concentrations
T9 construct: Captured on Neutravidin on a CM5 chip (Biacore A-100)
T9 sequence (P02787 20-698 limits assumed): as the sequence (P02787 20-698) above
Description: A Biacore A-100 Surface Plasmon Resonance (SPR) system was used to measure the binding response of each peptide to several different target proteins immobilized on a gold surface. The A-100 has four different flow cells and within each flow cell are five addressable spots. Therefore four different proteins and a negative control reference can be used per flow cell. Depending on the purpose of the assay, up to 16 different target proteins can be immobilized on a single SPR chip. The instrument is equipped to evaluate up to 10 384-well plates unattended and can process approximately four 384-well plates per day. Sensorgrams are collected from each immobilized protein, so a binding profile for each analyte versus each of the protein targets is generated for each injection. Target proteins were immobilized using a biotin capture approach in which a CM5 chip was activated using standard amine coupling chemistry and Neutravidin was covalently coupled to the chip. Each biotinylated protein was injected over a single spot and the amount of protein captured was measured.

T1 sequence (P01375 77-233): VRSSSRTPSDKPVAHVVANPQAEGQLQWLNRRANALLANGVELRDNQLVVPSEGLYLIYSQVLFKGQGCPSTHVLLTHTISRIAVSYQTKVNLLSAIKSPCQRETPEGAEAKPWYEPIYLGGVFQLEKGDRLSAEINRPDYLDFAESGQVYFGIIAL

Binder: FERDPLMMPWSFLQSRQGSC [TNF1 lead peptide]
koff [1]: 1.6 s⁻¹
Kd [2]: 160 µM

Kd (transferrin): ~0.141 µM
Kd (AKT1): ~0.001 µM
binding result (ANXA1): binds
binding result (ROCK2): no binding
binding result (PTK2): no binding
binding result (LACRT): no binding
binding result (CHAF1B): binds
binding result (ACTC): binds
B1: SYN23-26 (designed binder)
peptide 1: FRGWAHIFFGPHVIYRGGSG
peptide 2: AHKVVPQRQIRHAYNRYGSG
modifications: also: linker at chain A 20 at chain B 20 to a chain's C-terminus via Lys-Cys(biotin)
notes: Two 20-mers on the alpha and epsilon amines of a lysine, about 1 nm apart; thiol of the cysteine biotinylated for array detection; also called biotinylated anti-TRF synbody

Kd [3]: 78.9 µM
B2: TRF101 (peptide)
peptide: ARDLLIQKNSGQDVDHRGSC
notes: Screened unpurified, then resynthesised and HPLC purified for the KD
